Values joined by “and” are separate entries in the source; they are usually repeats but may differ in a detail not shown here. Identical values can stand only once. Like-named read-outs stand apart in the source and are kept apart here.
What was measured:
[1] = target: the molecule itself; test: SAXS
[2] = target: the molecule itself; test: SAXS; remark: listed apart in the source

B1: Hepatitis B virus capsid protein assembly domain (cp149) dimer (domain or fragment)
chain: MDIDPYKEFGATVELLSFLPSDFFPSVRDLLDTAAALYRDALESPEHCSPHHTALRQAILCWGDLMTLATWVGTNLEDPASRDLVVSYVNTNVGLKFRQLLWFHISCLTFGRETVLEYLVSFGVWIRTPPAYRPPNAPILSTLPETTVV
[1]
  stoichiometry N: 2
[2]
  stoichiometry N: 240 monomers and 180 monomers

Reference: paper PMC7243059 (ACS nano, 2019)
